Experimental data: patent publication US20200231691A1 (Hoffmann-La Roche, published 2020)

Key:
murine FAP = biological target: T1, murine FAP (murine, UniProt P97321 1-761); test: flow cytometry on CT26muFAP cells, which stably express murine FAP
T1 construct: whole, on cells; CT26muFAP served as the muEpCAM-negative specificity control cell line; also called muFAP; CT26muFAP cells
T1 sequence (looked up): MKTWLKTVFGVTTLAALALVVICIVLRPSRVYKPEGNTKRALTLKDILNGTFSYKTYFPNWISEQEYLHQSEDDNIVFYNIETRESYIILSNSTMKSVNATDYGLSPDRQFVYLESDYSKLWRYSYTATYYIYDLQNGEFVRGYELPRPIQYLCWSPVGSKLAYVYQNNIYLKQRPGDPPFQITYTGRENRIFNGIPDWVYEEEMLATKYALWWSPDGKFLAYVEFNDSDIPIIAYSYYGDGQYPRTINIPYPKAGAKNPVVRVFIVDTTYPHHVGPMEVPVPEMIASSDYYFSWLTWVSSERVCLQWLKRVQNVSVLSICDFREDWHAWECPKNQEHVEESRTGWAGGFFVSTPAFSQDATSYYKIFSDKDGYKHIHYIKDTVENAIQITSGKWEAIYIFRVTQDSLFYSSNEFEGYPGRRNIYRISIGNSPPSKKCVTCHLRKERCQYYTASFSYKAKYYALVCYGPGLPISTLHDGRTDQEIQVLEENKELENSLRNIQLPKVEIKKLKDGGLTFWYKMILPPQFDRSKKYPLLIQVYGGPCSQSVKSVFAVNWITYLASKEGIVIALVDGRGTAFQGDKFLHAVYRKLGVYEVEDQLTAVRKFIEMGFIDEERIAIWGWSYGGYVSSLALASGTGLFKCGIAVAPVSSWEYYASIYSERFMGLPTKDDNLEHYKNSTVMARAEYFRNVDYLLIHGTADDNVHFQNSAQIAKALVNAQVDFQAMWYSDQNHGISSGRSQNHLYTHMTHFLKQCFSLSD
Method: (§1) The binding to cell surface murine EpCAM was analysed using mouse EpCAM-positive CT26muEpCAM c125 cells, which stably expresses murine EpCAM. The specificity of binding was analysed by determination of binding to muEpCAM-negative cell line CT26muFAP, which stably expresses murine FAP.
(§2) For analysis of binding of the antigen binding molecules, 0.5×10⁵ CT26muEpCAM or 0.5×10⁵ CT26muFAP cells were added to wells of round-bottomed suspension cell 96-well plates (greiner bio-one, cellstar, Cat. No. 650185). For discrimination of live and dead cells, samples were stained with Zombie Aqua Viability Dye (Biolegend, Cat. No 423102) in PBS for 10 minutes at room temperature. Cells were then washed once with FACS buffer and subsequently stained for 90 minutes at 4° C. in the dark in 50 μL/well 4° C.
(§3) Plates were finally resuspended in 85 μL/well FACS-buffer and acquired the same day using 4-laser LSR-II cytometer (BD Bioscience with DIVA software).

murine OX40 [1] = biological target: T2, murine OX40 (murine, UniProt P47741 20-272); test: flow cytometry, activated murine OX40+ CD4+ T cells
T2 construct: also called muOX40
T2 sequence: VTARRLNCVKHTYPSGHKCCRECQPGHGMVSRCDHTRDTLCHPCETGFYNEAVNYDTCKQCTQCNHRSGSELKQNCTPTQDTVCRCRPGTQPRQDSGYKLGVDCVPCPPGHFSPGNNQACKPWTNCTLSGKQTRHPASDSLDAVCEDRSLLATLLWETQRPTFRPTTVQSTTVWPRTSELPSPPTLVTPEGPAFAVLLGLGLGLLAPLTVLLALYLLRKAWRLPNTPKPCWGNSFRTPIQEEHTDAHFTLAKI
Method: (§4) For labeling cells were harvested, washed with pre-warmed (37° C.) DPBS and adjusted to a cell density of 1×10⁷ cells/mL in DPBS. eFluor670 cell proliferation dye (eBioscience, Cat.-No. 65-0840-85) was added to the suspension of naïve splenocytes at a final concentration of 2.5 μM and a final cell density of 0.5×10⁷ cells/mL in DPBS. Cells were then incubated for 10 min at room temperature in the dark. To stop labeling reaction, 4 mL heat inactivated FBS were added and cells were washed three times with T cell medium. A mixture of 1×10⁵ resting eFluor670 labeled splenocytes and 1×10⁵ unlabeled activated splenocytes were then added to wells of round-bottomed suspension 96-well plates (Greiner bio-one, cellstar, Cat. No. 650185).
(§5) For discrimination between live and dead cells, samples were stained with Zombie Aqua Viability Dye (Biolegend, Cat. No. 423102) in DPBS for 10 minutes at room temperature. Cells were then washed once with FACS buffer and subsequently stained for 90 minutes at 4° C. in the dark in 50 μL/well 4° C. […] After washing three times with excess FACS buffer, cells were stained for 30 minutes at 4° C. in the dark in 25 μL/well 4° C.
(§6) Plates were finally resuspended in 85 μL/well FACS buffer and acquired the same day using 4-laser LSR-II cytometer (BD Bioscience with DIVA software).

murine OX40 [2] = biological target: T2, murine OX40; test: flow cytometry, activated murine OX40+ CD8+ T cells
Method: as §4, §5, §6

murine EpCAM = biological target: T3, murine EpCAM (murine, UniProt Q99JW5 24-315); test: flow cytometry, muEpCAM+ CT26muEpCAM cells
T3 construct: Stably expressed on CT26muEpCAM cl25 cells; also called muEpCAM; CT26muEpCAM cells
T3 sequence: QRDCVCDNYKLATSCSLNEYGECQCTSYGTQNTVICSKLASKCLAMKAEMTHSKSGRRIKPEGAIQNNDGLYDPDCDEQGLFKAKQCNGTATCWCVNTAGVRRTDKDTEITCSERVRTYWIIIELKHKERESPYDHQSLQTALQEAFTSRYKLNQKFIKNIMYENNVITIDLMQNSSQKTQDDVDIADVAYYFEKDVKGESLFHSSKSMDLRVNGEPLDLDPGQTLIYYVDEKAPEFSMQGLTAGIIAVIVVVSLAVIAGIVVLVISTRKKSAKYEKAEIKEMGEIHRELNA
Method: as §1, §2, §3

B1: bispecific, tetravalent anti-murine OX40, monovalent anti-murine EpCAM 4+1 molecule (muOX40 OX86/muEpCAM G8.8 DAPG 4+1) (bispecific antibody, mouse IgG1, kappa)
heavy 1: QVQLKESGPGLVQPSQTLSLTCTVSGFSLTGYNLHWVRQPPGKGLEWMGRMRYDGDTYYNSVLKSRLSISRDTSKNQVFLKMNSLQTDDTAIYYCTRDGRGDSFDYWGQGVMVTVSSAKTTPPSVYPLAPGSAAQTNSMVTLGCLVKGYFPEPVTVTWNSGSLSSGVHTFPAVLQSDLYTLSSSVTVPSSTWPSQTVTCNVAHPASSTKVDKKIVPRDCGGGGSGGGGSQVQLKESGPGLVQPSQTLSLTCTVSGFSLTGYNLHWVRQPPGKGLEWMGRMRYDGDTYYNSVLKSRLSISRDTSKNQVFLKMNSLQTDDTAIYYCTRDGRGDSFDYWGQGVMVTVSSAKTTPPSVYPLAPGSAAQTNSMVTLGCLVKGYFPEPVTVTWNSGSLSSGVHTFPAVLQSDLYTLSSSVTVPSSTWPSQTVTCNVAHPASSTKVDKKIVPRDCGCKPCICTVPEVSSVFIFPPKPKDVLTITLTPKVTCVVVAISKDDPEVQFSWFVDDVEVHTAQTKPREEQINSTFRSVSELPIMHQDWLNGKEFKCRVNSAAFGAPIEKTISKTKGRPKAPQVYTIPPPKEQMAKDKVSLTCMITNFFPEDITVEWQWNGQPAENYDNTQPIMDTDGSYFVYSDLNVQKSNWEAGNTFTCSVLHEGLHNHHTEKSLSHSPGGGGGSGGGGSGGGGSGGGGSDIQMTQSPASLSASLGETVSIECLASEGISNDLAWYQQKSGKSPQLLIYATSRLQDGVPSRFSGSGSGTRYSLKISGMQPEDEADYFCQQSYKYPWTFGGGTKLELK
heavy 2: QVQLKESGPGLVQPSQTLSLTCTVSGFSLTGYNLHWVRQPPGKGLEWMGRMRYDGDTYYNSVLKSRLSISRDTSKNQVFLKMNSLQTDDTAIYYCTRDGRGDSFDYWGQGVMVTVSSAKTTPPSVYPLAPGSAAQTNSMVTLGCLVKGYFPEPVTVTWNSGSLSSGVHTFPAVLQSDLYTLSSSVTVPSSTWPSQTVTCNVAHPASSTKVDKKIVPRDCGGGGSGGGGSQVQLKESGPGLVQPSQTLSLTCTVSGFSLTGYNLHWVRQPPGKGLEWMGRMRYDGDTYYNSVLKSRLSISRDTSKNQVFLKMNSLQTDDTAIYYCTRDGRGDSFDYWGQGVMVTVSSAKTTPPSVYPLAPGSAAQTNSMVTLGCLVKGYFPEPVTVTWNSGSLSSGVHTFPAVLQSDLYTLSSSVTVPSSTWPSQTVTCNVAHPASSTKVDKKIVPRDCGCKPCICTVPEVSSVFIFPPKPKDVLTITLTPKVTCVVVAISKDDPEVQFSWFVDDVEVHTAQTKPREEQINSTFRSVSELPIMHQDWLNGKEFKCRVNSAAFGAPIEKTISKTKGRPKAPQVYTIPPPKKQMAKDKVSLTCMITNFFPEDITVEWQWNGQPAENYKNTQPIMKTDGSYFVYSKLNVQKSNWEAGNTFTCSVLHEGLHNHHTEKSLSHSPGGGGGSGGGGSGGGGSGGGGSEVQLAESGGGLVQPGRSMKLSCAASGFTFSNFPMAWVRQAPTKGLEWVATISTSGGSTYYRDSVKGRFTISRDNAKSTLYLQMNSLRSEDTATYYCTRTLYILRVFYFDYWGQGVMVTVSS
light: DIVMTQGALPNPVPSGESASITCRSSQSLVYKDGQTYLNWFLQRPGQSPQLLTYWMSTRASGVSDRFSGSGSGTYFTLKISRVRAEDAGVYYCQQVREYPFTFGSGTKLEIKRADAAPTVSIFPPSSEQLTSGGASVVCFLNNFYPKDINVKWKIDGSERQNGVLNSWTDQDSKDSTYSMSSTLTLTKDEYERHNSYTCEATHKTSTSPIVKSFNRNEC
notes: muIgG1 DAPG with DDKK heterodimerisation; also called 4+1 muEpCAM; 4 + 1 anti-muOX40, anti-muEpCAM
For B1, the binding result (murine FAP) was “no binding”, the EC50 (murine OX40 [1]) was 1.47 nM and the EC50 (murine OX40 [2]) was 0.82 nM. For the same binder, the EC50 (murine EpCAM) was 82.5 nM.
